In US20180305450A1 (AstraZeneca / MedImmune, published 2018):
Values belong to the binder of their own block, whether it stands above or below them.

Assays:
[1] = molecular target: T1, recombinant biotinylated human PAR2 extracellular domain (residues 1-75), N-terminal AviTag, C-terminal Flag … (human, UniProt P55085 26-75, biotin on the AviTag (enzymatic biotinylation)); test: Biacore SPR 25 C, pH 6.0
T1 construct: also called Bio-human-PAR2 ECD; human PAR2 ECD; not shown: N-terminal AviTag (Avidity LLC); C-terminal Flag and poly Histidine tags
Procedure: (§1) The experiments were carried out using recombinant human, rat and cynomolgus PAR2 with an N-terminal Avi tag and C-terminal Flag-His tags.
(§2) Streptavidin was covalently immobilised to a C1 chip surface using standard amine coupling techniques at a concentration of 4 μg/ml in 10 mM Sodium acetate pH 4.5. A final streptavidin surface of approximately 30-100 RUs was achieved. Recombinant biotinylated PAR2 species (produced in-house) were titrated onto the streptavidin chip surface at 4 μg/ml in HBS-EP+ buffer to enable Fab binding at saturation (Rₘₐₓ). This low level of analyte binding ensured minimal mass transport effects.
(§3) The anti-PAR2 Fabs were serially diluted (0.39 nM-25 nM) in HBS-EP+ buffer pH 7.4 or MES-BS-EP+ pH 6.0 buffer or in MES-BS-EP+ pH 5.6 buffer and flowed over the chip at 50 μl/min, with 3 minutes association and up to 30 minutes dissociation. Multiple buffer-only injections were made under the same conditions to allow for double reference subtraction of the final sensorgram sets, which were analysed using the BiaEval software (version 2.0.1). The chip surface was fully regenerated with pulses of 4 M MgCl₂.

[2] = molecular target: T2, recombinant biotinylated cynomolgus (Macaca fascicularis) PAR2 extracellular residues 1-75, N-terminal … (cynomolgus (Macaca fascicularis)); test: Biacore SPR 25 C, pH 6.0
T2 construct: range 1-75; also called cynomolgus PAR2
Procedure: as §1, §2, §3

[3] = molecular target: T1, recombinant biotinylated human PAR2 …; test: Biacore SPR 25 C, pH 7.4; pH 7.4; human; second determination
Procedure: as §1, §2, §3

[4] = molecular target: T1, recombinant biotinylated human PAR2 …; test: Biacore SPR 25 C, pH 7.4
Procedure: as §1, §2, §3

[5] = molecular target: T3, recombinant biotinylated rat PAR2 extracellular residues 1-75, N-terminal AviTag, C-terminal Flag and poly … (rat, UniProt Q63645 26-75, not fully specified; biotin on the AviTag (enzymatic biotinylation)); test: Biacore SPR 25 C, pH 7.4
T3 construct: range 1-75; not shown: N-terminal AviTag (Avidity LLC); C-terminal Flag and poly Histidine tags
T3 chain (looked up): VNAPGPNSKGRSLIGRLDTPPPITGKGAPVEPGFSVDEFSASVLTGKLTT
Procedure: as §1, §2, §3

[6] = molecular target: T1, recombinant biotinylated human PAR2 …; test: Biacore SPR 25 C, pH 6.0 (second row)
Procedure: as §1, §2, §3

[7] = molecular target: T2, recombinant biotinylated cynomolgus …; test: Biacore SPR 25 C, pH 6.0 (second row)
Procedure: as §1, §2, §3

[8] = molecular target: T1, recombinant biotinylated human PAR2 …; test: Biacore SPR 25 C, pH 5.6
Procedure: as §1, §2, §3

[9] = molecular target: T2, recombinant biotinylated cynomolgus …; test: Biacore SPR 25 C, pH 5.6
Procedure: as §1, §2, §3

[10] = molecular target: T1, recombinant biotinylated human PAR2 …; test: Biacore SPR 25 C, pH 7.4 (second row)
Procedure: as §1, §2, §3

[11] = molecular target: T2, recombinant biotinylated cynomolgus …; test: Biacore SPR 25 C, pH 7.4 (second row)
Procedure: as §1, §2, §3

[12] = molecular target: T1, recombinant biotinylated human PAR2 …; test: Biacore SPR 25 C, pH 6.0; remark: listed apart in the source
Procedure: as §1, §2, §3

[13] = molecular target: T3, recombinant biotinylated rat PAR2 …; test: Biacore SPR 25 C, pH 6.0
Procedure: as §1, §2, §3

[14] = molecular target: T1, recombinant biotinylated human PAR2 …; test: Biacore SPR 25 C, pH 7.4; remark: listed apart in the source
Procedure: as §1, §2, §3

[15] = molecular target: T2, recombinant biotinylated cynomolgus …; test: Biacore SPR 25 C, pH 7.4
Procedure: as §1, §2, §3

[16] = molecular target: T1, recombinant biotinylated human PAR2 …; test: Biacore SPR 25 C, pH 6.0; pH 6.0; human PAR2
Procedure: as §1, §2, §3

[17] = molecular target: T1, recombinant biotinylated human PAR2 …; test: Biacore SPR 25 C, pH 6.0; remark: listed apart in the source
Procedure: as §1, §2, §3

[18] = molecular target: T3, recombinant biotinylated rat PAR2 …; test: Biacore SPR 25 C, pH 6.0
Procedure: as §1, §2, §3

[19] = molecular target: T1, recombinant biotinylated human PAR2 …; test: Biacore SPR 25 C, pH 7.4; remark: listed apart in the source
Procedure: as §1, §2, §3

[20] = molecular target: T3, recombinant biotinylated rat PAR2 …; test: Biacore SPR 25 C, pH 7.4
Procedure: as §1, §2, §3

[21] = molecular target: T4, human PAR2 on cells (endogenous in A549 cells; overexpressed in 1321N1-hPAR2-c18 cells) (human, UniProt P55085 37-397); test: cell-based or functional assay
T4 sequence: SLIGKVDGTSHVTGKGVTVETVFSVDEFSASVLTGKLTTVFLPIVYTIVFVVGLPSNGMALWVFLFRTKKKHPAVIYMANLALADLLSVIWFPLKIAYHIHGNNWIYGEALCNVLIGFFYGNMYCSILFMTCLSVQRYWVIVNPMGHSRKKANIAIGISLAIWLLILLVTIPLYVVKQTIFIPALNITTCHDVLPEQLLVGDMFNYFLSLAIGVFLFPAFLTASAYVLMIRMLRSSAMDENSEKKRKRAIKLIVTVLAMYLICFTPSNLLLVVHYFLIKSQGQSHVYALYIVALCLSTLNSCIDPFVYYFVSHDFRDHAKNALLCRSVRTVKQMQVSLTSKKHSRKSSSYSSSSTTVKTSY

[22] = molecular target: T1, recombinant biotinylated human PAR2 …; test: HTRF competition with Dylight650-Par0067 IgG, IgG
Procedure: (§4) Parent Par0067 IgG (used as a reference/control in all assays) was pre-diluted to give a 2000 nM stock in each of the two different pH assay buffers (in order to give a top final assay IgG concentration of 500 nM). All test, or other reference/control IgG were tested from a top final assay concentration of ¼ of the neat undiluted sample (i.e. no pre-dilution step was performed). Duplicate 11 point 1:3 serial dilutions then were prepared on 384 well polypropylene Greiner plates in each of the two assay buffers (pH 7.4 & 6.0). 5 μl per well was transferred from the relevant pH IgG dilution plate to the corresponding assay plate (pH 7.4 and pH 6.0). 5 ul of the appropriate pH assay buffer was added to the total and non-specific wells.
(§5) For multipoint dose response curves % Specific Binding values were plotted versus test purified antibody concentration (scFv or IgG). IC₅₀ values were determined via a sigmoidal dose response inhibition variable slope curve fit (4 parameter logistic equation) using Graphpad Prism Software.

[23] = molecular target: T1, recombinant biotinylated human PAR2 …; test: HTRF competition with Dylight650-Par0067 IgG, pH 7.4, IgG
Procedure: as §4, §5

T1 sequence (P55085 26-75): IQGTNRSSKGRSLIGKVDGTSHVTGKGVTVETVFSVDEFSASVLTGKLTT

Kd [1]: 36.9 nM
koff [1]: 0.0576 s⁻¹
kon [1]: 1.56e+06 M⁻¹ s⁻¹
Kd [2]: 12.8 nM
koff [2]: 0.0275 s⁻¹
kon [2]: 2.14e+06 M⁻¹ s⁻¹
kon [3]: 6.81e+06 M⁻¹ s⁻¹
Kd [4]: 0.614 nM
koff [4]: 0.00504 s⁻¹
kon [4]: 8.2e+06 M⁻¹ s⁻¹
Kd [5]: 2.98 nM
koff [5]: 0.0263 s⁻¹
kon [5]: 8.82e+06 M⁻¹ s⁻¹
Kd [6]: 33.5 nM
koff [6]: 0.109 s⁻¹
kon [6]: 3.26e+06 M⁻¹ s⁻¹
Kd [7]: 13.6 nM
koff [7]: 0.0236 s⁻¹
kon [7]: 1.74e+06 M⁻¹ s⁻¹
Kd [8]: 84.5 nM
koff [8]: 0.112 s⁻¹
kon [8]: 1.33e+06 M⁻¹ s⁻¹
Kd [9]: 37.8 nM
koff [9]: 0.139 s⁻¹
kon [9]: 3.66e+06 M⁻¹ s⁻¹
Kd [10]: 0.778 nM
koff [10]: 0.0053 s⁻¹
Kd [11]: 0.335 nM
koff [11]: 0.00221 s⁻¹
kon [11]: 6.59e+06 M⁻¹ s⁻¹
Kd [12]: 34.8 nM
koff [12]: 0.0554 s⁻¹
kon [12]: 1.59e+06 M⁻¹ s⁻¹
Kd [13]: 57.9 nM
koff [13]: 0.0841 s⁻¹
kon [13]: 1.45e+06 M⁻¹ s⁻¹
Kd [14]: 0.748 nM
koff [14]: 0.00534 s⁻¹
kon [14]: 7.14e+06 M⁻¹ s⁻¹
Kd [15]: 0.333 nM
koff [15]: 0.00223 s⁻¹
kon [15]: 6.67e+06 M⁻¹ s⁻¹
B1: PaB670129 Fab (Fab, V domains shown)
VH: EVQLLESGGGLVQPGGSLRLSCAASGFTFSSYAMNWVRQAPGKGLEWVSTISYHGSHISYHDSVHHRFTISRDNSKNTLYLQMNSLRAEDTAVYYCARIHHDPMDVWGQGTLVTVSS
VL: SIELTQPPSVSVSPGQTASITCSGDNLGKKYVQWYQQKPGQSPVLVIYDDSNRPSGIPERFSGSNSGNTATLTISGTQAMDEADYYCQTWDGNPTTGETNVFGGGTKLTVL
notes: Fab; also called ZZ1RUE-F02

Kd [4]: 0.957 nM
koff [4]: 0.00495 s⁻¹
kon [4]: 5.17e+06 M⁻¹ s⁻¹
Kd [5]: 4.15 nM
koff [5]: 0.0314 s⁻¹
kon [5]: 7.57e+06 M⁻¹ s⁻¹
koff [16]: 14.9 s⁻¹
kon [16]: 7.92e+08 M⁻¹ s⁻¹
Kd [12]: 18.8 nM
Kd [13]: 37.5 nM
koff [13]: 0.0589 s⁻¹
kon [13]: 1.57e+06 M⁻¹ s⁻¹
B2: PaB670136 Fab (Fab, V domains shown)
VH: EVQLLESGGGLVQPGGSLRLSCAASGFTFSSYAMNWVRQAPGKGLEWVSTISYHGHHISYADSHHHRFTISRDNSKNTLYLQMNSLRAEDTAVYYCARIHHDPMDHWGQGTLVTVSS
VL: SIELTQPPSVSVSPGQTASITCSGDNLGKKYVQWYQQKPGQSPVLVIYDDSNRPSGIPERFSGSNSGNTATLTISGTQAMDEADYYCQTWDGNPTTGETNVFGGGTKLTVL
notes: Fab; also called ZZ1RUF-A01

Kd [17]: 2.49 nM
koff [17]: 0.00458 s⁻¹
kon [17]: 1.84e+06 M⁻¹ s⁻¹
Kd [18]: 4.48 nM
koff [18]: 0.0217 s⁻¹
kon [18]: 4.84e+06 M⁻¹ s⁻¹
Kd [4]: 0.124 nM
koff [4]: 0.000519 s⁻¹
kon [4]: 4.2e+06 M⁻¹ s⁻¹
Kd [5]: 0.586 nM
koff [5]: 0.00307 s⁻¹
kon [5]: 5.24e+06 M⁻¹ s⁻¹
Kd [19]: 0.104 nM
koff [19]: 0.00058 s⁻¹
kon [19]: 5.59e+06 M⁻¹ s⁻¹
Kd [20]: 0.435 nM
koff [20]: 0.00325 s⁻¹
kon [20]: 7.46e+06 M⁻¹ s⁻¹
Kd [12]: 2.57 nM
koff [12]: 0.00497 s⁻¹
kon [12]: 1.94e+06 M⁻¹ s⁻¹
Kd [13]: 5.12 nM
koff [13]: 0.0205 s⁻¹
kon [13]: 4e+06 M⁻¹ s⁻¹
B3: PaB670048 Fab (Fab, V domains shown)
VH: EVQLLESGGGLVQPGGSLRLSCAASGFTFSSYAMNWVRQAPGKGLEWVSTISYSGSLISYADSVKGRFTISRDNSKNTLYLQMNSLRAEDTAVYYCARIHHDPMDHWGQGTLVTVSS
VL: SIELTQPPSVSVSPGQTASITCSGDNLGKKYVQWYQQKPGQSPVLVIYDDSNRPSGIPERFSGSNSGNTATLTISGTQAMDEADYYCQTWDGNPTTGETNVFGGGTKLTVL
notes: Fab; also called ZZ1KX4-E11

IC50 (read off the curve); calcium response to trypsin in presence of PaB670129, human A549 cells [21]: ~0.1 nM
Fold IC50 pH 7.4 (Variant v Par0067) [22]: 67.2 fold
IC50 [23]: 56.1 nM
B4: PaB670129 IgG1TM (antibody, V domains shown)
VH: EVQLLESGGGLVQPGGSLRLSCAASGFTFSSYAMNWVRQAPGKGLEWVSTISYHGSHISYHDSVHHRFTISRDNSKNTLYLQMNSLRAEDTAVYYCARIHHDPMDVWGQGTLVTVSS
VL: SIELTQPPSVSVSPGQTASITCSGDNLGKKYVQWYQQKPGQSPVLVIYDDSNRPSGIPERFSGSNSGNTATLTISGTQAMDEADYYCQTWDGNPTTGETNVFGGGTKLTVL
notes: IgG1-TM (L234F, L235E, P331S), human lambda light chain; also called ZZ1RUE-F02
